# Patent US20230406907A1
# Like-named read-outs stand apart in the source and are kept apart here.
# B1: antibody S1D2 (fully human recombinant monoclonal IgG1, no Fc mutation) (antibody, V domains shown)
# VH: EVQLVESGGGLIQPGGSLRLSCAASGFTVSSNYMSWVRQAPGKGLEWVSIIYPGGSTNYADSVKGRFTISRDNSRNTLYLQMNSLRAEDTAVYYCARELGYYGMDVWGQGTTVTVSS
# VL: DIQMTQSPSSVSASVGDRVTITCRASQGISTWLVWYQQKPGKAPNLLIYGASSLQSGVPSRFSGSGSGTDFTLTISSLQPEDFATYYCQQANSFPYTFGQGTKLEIK
# Experiments:
# [1] = target: T1, SARS-CoV-2 spike protein RBD (amino acids 319-537 of SEQ ID NO:1, i.e. SEQ ID NO:5) with a carboxy t (SARS-CoV-2), P0DTC2; details: remark: other sources report otherwise
# [2] = target: T1, SARS-CoV-2 spike protein RBD (amino …); details: remark: other sources report otherwise; remark: listed apart in the source
binder,measurement,setting,value
B1,Kd,[1],46 nM
same,Kd,[2],46.2 nM
same,koff,[2],0.027 s⁻¹
same,kon,[2],584000 M⁻¹ s⁻¹
